Assay results as given in US20250243277A1 (AVACTA LIFE SCIENCES, published 2025).

Target: T1, human PD-L1-Fc (R&D Systems) (human, UniProt Q9NZQ7 19-239)
T1 construct: Bought from R&D Systems; Biotinylated in-house for the phage selection; also called huPD-L1-Fc; human PD-L1-Fc antigen; not shown: Fc part of the bought fusion
Assay: SPR (Biacore T200): human PD-L1-Fc amine-coupled on a CM5 chip, Affimer monomer titrated as analyte, 1:1 Langmuir fit
Procedure: BIACORE™ T200 binding kinetic analysis was performed on monomer AFFIMER® clones with running buffer HBS-EP+ (Cytiva) and a series S sensor CM5 chip immobilized with human PD-L1-Fc (R&D Systems) in 10 mM Sodium acetate pH4.0 μsing amine coupling reagents (Cytiva). A concentration titration of AFFIMER® monomer was run as analyte with an association time of 150 seconds, followed by a dissociation time of 300 seconds at a flow rate of 30 μl/min. For Clone 80, the association time was increased to 500 seconds and 1000 seconds dissociation time. The human PD-L1-Fc immobilized surface was regenerated with 3-3.5 mM NaOH solution (Cytiva) for 20-30 seconds at 20 μl/min flow rate. The kinetic data was blank subtracted and fit to a 1:1 Langmuir binding model (BIAcore evaluation software; Cytiva) to calculate an apparent KD value.

T1 sequence (Q9NZQ7 19-239 limits assumed): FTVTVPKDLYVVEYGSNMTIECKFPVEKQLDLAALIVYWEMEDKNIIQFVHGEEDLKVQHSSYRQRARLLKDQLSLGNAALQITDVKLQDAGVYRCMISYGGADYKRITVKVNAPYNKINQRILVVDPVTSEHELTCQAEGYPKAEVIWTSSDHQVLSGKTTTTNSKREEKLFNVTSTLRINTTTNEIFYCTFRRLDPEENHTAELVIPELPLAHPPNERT

| Kd [nM] | koff [s⁻¹] | kon [M⁻¹ s⁻¹] | Binder |
| --- | --- | --- | --- |
| 45.6 | 0.0909 | 1.99e+06 | Clone 54 (designed binder, type III Affimer monomer; His-tagged) MIPGGLSEAKPATPEIQEIVDKVKPQLEEKTGETYGKLEAVQYKTQVVINQQQIKHSGTNYYIKVRAGDNKYMHLKVFKSLWQHIPPDFWEDLVLTGYQVDKNKDDELTGF |
| 44 | 0.0457 | 1.04e+06 | Clone 111 (designed binder, His-tagged) MIPGGLSEAKPATPEIQEIVDKVKPQLEEKTGETYGKLEAVQYKTQVDIQDRLGGFIGTNYYIKVRAGDNKYMHLKVFKSLHFYRGILYREDLVLTGYQVDKNKDDELTGF |

Target: T1, human PD-L1-Fc (R&D Systems)
Assay: soluble Affimer ELISA

| binding result | Binder |
| --- | --- |
| binds | Clone 94 (designed binder, His-tagged) MIPGGLSEAKPATPEIQEIVDKVKPQLEEKTGETYGKLEAVQYKTQVDKVYLVWAWTGTNYYIKVRAGDNKYMHLKVFKSLFQKGSNKPEEDLVLTGYQVDKNKDDELTGF |
| binds | Clone 90 (designed binder, His-tagged) MIPGGLSEAKPATPEIQEIVDKVKPQLEEKTGETYGKLEAVQYKTQVVLGWWFGINQGTNYYIKVRAGDNKYMHLKVFKSLAHLQYEWGGEDLVLTGYQVDKNKDDELTGF |
| binds | Clone 93 (designed binder, His-tagged) MIPGGLSEAKPATPEIQEIVDKVKPQLEEKTGETYGKLEAVQYKTQVDQWGVDLVYTGTNYYIKVRAGDNKYMHLKVFKSLIVKRAVILWEDLVLTGYQVDKNKDDELTGF |
| binds | Clone 98 (designed binder, His-tagged) MIPGGLSEAKPATPEIQEIVDKVKPQLEEKTGETYGKLEAVQYKTQVDWAIWRDKKVGTNYYIKVRAGDNKYMHLKVFKSLPIFEIVREGEDLVLTGYQVDKNKDDELTGF |
| binds | Clone 99 (designed binder, His-tagged) MIPGGLSEAKPATPEIQEIVDKVKPQLEEKTGETYGKLEAVQYKTQVDTWGERLHYPGTNYYIKVRAGDNKYMHLKVFKSLWHKPKDNIIEDLVLTGYQVDKNKDDELTGF |
| binds | Clone 91 (designed binder, His-tagged) MIPGGLSEAKPATPEIQEIVDKVKPQLEEKTGETYGKLEAVQYKTQVVNQEHFRRFIGTNYYIKVRAGDNKYMHLKVFKSLNPWLHPQDFEDLVLTGYQVDKNKDDELTGF |
| binds | Clone 97 (designed binder, His-tagged) MIPGGLSEAKPATPEIQEIVDKVKPQLEEKTGETYGKLEAVQYKTQVDELDDAVKYWGTNYYIKVRAGDNKYMHLKVFKSLWWKTISADFEDLVLTGYQVDKNKDDELTGF |
| binds | Clone 92 (designed binder, His-tagged) MIPGGLSEAKPATPEIQEIVDKVKPQLEEKTGETYGKLEAVQYKTQVDIDDDLWSGTNYYIKVRAGDNKYMHLKVFKSLILWPTKPEREDLVLTGYQVDKNKDDELTGF |

Target: T1, human PD-L1-Fc (R&D Systems)
Assay: SPR (Biacore 8K), binding to PD-L1-Fc

| Kd [nM] | binding result | Binder |
| --- | --- | --- |
| 5.08 |  | Clone 80 D82A (designed binder, alanine mutant of Clone 80 made in E. coli) MIPGGLSEAKPATPEIQEIVDKVKPQLEEKTGETYGKLEAVQYKTQVVRRKHFPQWPGTNYYIKVRAGDNKYMHLKVFKSLALQPREVFQEDLVLTGYQVDKNKDDELTGF |
|  | no binding | Clone 80 W56A (designed binder, alanine mutant of Clone 80 made in E. coli) MIPGGLSEAKPATPEIQEIVDKVKPQLEEKTGETYGKLEAVQYKTQVVRRKHFPQAPGTNYYIKVRAGDNKYMHLKVFKSLDLQPREVFQEDLVLTGYQVDKNKDDELTGF |
| 38 |  | Clone 80 H52A (designed binder, alanine mutant of Clone 80 made in E. coli) MIPGGLSEAKPATPEIQEIVDKVKPQLEEKTGETYGKLEAVQYKTQVVRRKAFPQWPGTNYYIKVRAGDNKYMHLKVFKSLDLQPREVFQEDLVLTGYQVDKNKDDELTGF |
| 2.53 |  | Clone 80 P85A (designed binder, alanine mutant of Clone 80 made in E. coli) MIPGGLSEAKPATPEIQEIVDKVKPQLEEKTGETYGKLEAVQYKTQVVRRKHFPQWPGTNYYIKVRAGDNKYMHLKVFKSLDLQAREVFQEDLVLTGYQVDKNKDDELTGF |
| 8.91 |  | Clone 80 P57A (designed binder, alanine mutant of Clone 80 made in E. coli) MIPGGLSEAKPATPEIQEIVDKVKPQLEEKTGETYGKLEAVQYKTQVVRRKHFPQWAGTNYYIKVRAGDNKYMHLKVFKSLDLQPREVFQEDLVLTGYQVDKNKDDELTGF |
|  | no binding | Clone 80 F53A (designed binder, alanine mutant of Clone 80 made in E. coli) MIPGGLSEAKPATPEIQEIVDKVKPQLEEKTGETYGKLEAVQYKTQVVRRKHAPQWPGTNYYIKVRAGDNKYMHLKVFKSLDLQPREVFQEDLVLTGYQVDKNKDDELTGF |
| 0.93 |  | Clone 80 P54A (designed binder, alanine mutant of Clone 80 made in E. coli) MIPGGLSEAKPATPEIQEIVDKVKPQLEEKTGETYGKLEAVQYKTQVVRRKHFAQWPGTNYYIKVRAGDNKYMHLKVFKSLDLQPREVFQEDLVLTGYQVDKNKDDELTGF |
|  | no binding | Clone 80 R50A (designed binder, alanine mutant of Clone 80 made in E. coli) MIPGGLSEAKPATPEIQEIVDKVKPQLEEKTGETYGKLEAVQYKTQVVRAKHFPQWPGTNYYIKVRAGDNKYMHLKVFKSLDLQPREVFQEDLVLTGYQVDKNKDDELTGF |
| 0.61 |  | Clone 80 Q84A (designed binder, alanine mutant of Clone 80 made in E. coli) MIPGGLSEAKPATPEIQEIVDKVKPQLEEKTGETYGKLEAVQYKTQVVRRKHFPQWPGTNYYIKVRAGDNKYMHLKVFKSLDLAPREVFQEDLVLTGYQVDKNKDDELTGF |
| 1.48 |  | Clone 80 L83A (designed binder, alanine mutant of Clone 80 made in E. coli) MIPGGLSEAKPATPEIQEIVDKVKPQLEEKTGETYGKLEAVQYKTQVVRRKHFPQWPGTNYYIKVRAGDNKYMHLKVFKSLDAQPREVFQEDLVLTGYQVDKNKDDELTGF |
| 2.61 |  | Clone 80 F89A (designed binder, alanine mutant of Clone 80 made in E. coli) MIPGGLSEAKPATPEIQEIVDKVKPQLEEKTGETYGKLEAVQYKTQVVRRKHFPQWPGTNYYIKVRAGDNKYMHLKVFKSLDLQPREVAQEDLVLTGYQVDKNKDDELTGF |
| 1.69 |  | Clone 80 Q55A (designed binder, alanine mutant of Clone 80 made in E. coli) MIPGGLSEAKPATPEIQEIVDKVKPQLEEKTGETYGKLEAVQYKTQVVRRKHFPAWPGTNYYIKVRAGDNKYMHLKVFKSLDLQPREVFQEDLVLTGYQVDKNKDDELTGF |

Target: T2, human PD-L1 on CHO cells (human, UniProt Q9NZQ7 19-290)
T2 construct: whole, on cells; also called Human PD-L1 CHO cells; hu-PD-L1 CHO cells
Assay: flow cytometry histogram, live-gated hu-PD-L1 CHO cells, Affimer at 100 nM
Procedure: Human PD-L1 CHO cells having a cell surface over expressing human PD-L1 or CHO-negative cells were plated at 50,000 cells per well in a round bottom tissue culture plate. AFFIMER® clones were titrated from 700 nM or monoclonal antibody (mAb) controls titrated from 10 nM in cell staining buffer (PBS, 1% BSA+2 mM EDTA+0.05% Sodium Azide buffer) and incubated for 1 hour. After two washes with staining buffer, AFFIMER® polypeptides were detected with an anti-cystatin antibody. After a further two washes, AF488-conjugated anti-goat antibody (to detect AFFIMER® polypeptides) or AF488-conjugated anti human IgG1 antibody (to detect mAb controls) were incubated for 40 minutes followed by an additional wash step. Viability dye (Zombie Aqua reagent, Biolegend) was added and the plates were incubated for 10 min. After a final wash, cells were fixed and the data acquired using a multiparameter flow cytometer (Guava 12HT, Luminex Corp).

T2 sequence (Q9NZQ7 19-290): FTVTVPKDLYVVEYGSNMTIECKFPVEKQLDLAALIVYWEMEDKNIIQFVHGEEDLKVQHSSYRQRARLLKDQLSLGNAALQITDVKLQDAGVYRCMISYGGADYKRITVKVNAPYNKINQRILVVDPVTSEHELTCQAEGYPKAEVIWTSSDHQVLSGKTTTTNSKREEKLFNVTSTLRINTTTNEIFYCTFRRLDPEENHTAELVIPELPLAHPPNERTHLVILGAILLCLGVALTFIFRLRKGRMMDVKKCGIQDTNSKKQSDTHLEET

| % (cells in the positive gate) [%] | MFI [MFI] | Binder |
| --- | --- | --- |
| 98.1 | 1240 | Clone 256 (designed binder, type I Affimer monomer) MIPRGLSEAKPATPEIQEIVDKVKPQLEEKTNETYGKLEAVQYKTQVLAKEHGPDSWWSTNYYIKVRAGDNKYMHLKVFNGPQEKNQWVEEADRVLTGYQVDKNKDDELTGF |

Target: T1, human PD-L1-Fc (R&D Systems)
Assay: PD-L1/PD-1 competition ELISA, % inhibition: Affimer pre-incubated with huPD-L1-Fc, then loaded on plate-coated human PD-1-Fc (blocked ligand). Column head on the sheet reads 'EC50nM'; the text calls these values IC50
Procedure: The competitive inhibition of AFFIMER® multimers was evaluated by enzyme linked immunosorbent assay (ELISA). Human PD-1-Fc (R&D Systems) was coated at 0.5 μg/ml on the plate. Plates were washed two times with […] of washing buffer (PBS, Tween 20 0.1%) with a plate washer and saturated with Casein 5% (Sigma) in PBS for 90 minutes at room temperature (25±1° C.). Plates were subsequently washed. AFFIMER® polypeptides and controls (human PD-1-Fc; R&D Systems or blank) were then diluted in duplicate, and preincubated with huPD-L1-Fc (R&D Systems) at a predefined concentration equivalent to the EC₈₀ for 30 minutes then loaded on the plate for 90 minutes at room temperature (25±1° C.). Plates were washed 3 times. Biotinylated polyclonal antibody anti-human PD-L1 (R&D Systems) was then diluted in dilution buffer and incubated 90 minutes at room temperature (25±1° C.). Plates were washed 3 times and Streptavidin HRP was incubated for 30 minutes at room temperature (25±1° C.). Plates were washed and the substrate (TMB; Pierce Thermo-Scientific) added to the plate for 10 minutes. The reaction was stopped using an acidic solution and plates were read at absorbance 450-630 nm. The IC₅₀ was then calculated using the interpolated non-linear four-parameter standard curve.

| EC50 [nM] | Binder |
| --- | --- |
| 8.55 | Clone 256 (designed binder, type I Affimer monomer) MIPRGLSEAKPATPEIQEIVDKVKPQLEEKTNETYGKLEAVQYKTQVLAKEHGPDSWWSTNYYIKVRAGDNKYMHLKVFNGPQEKNQWVEEADRVLTGYQVDKNKDDELTGF |
| 69.9 | Clone 58 (designed binder, His-tagged) MIPGGLSEAKPATPEIQEIVDKVKPQLEEKTGETYGKLEAVQYKTQVVKQLIIWHWTGTNYYIKVRAGDNKYMHLKVFKSLFKNSNSHLEEDLVLTGYQVDKNKDDELTGF |
| 197 | Clone 52 (designed binder, His-tagged) MIPGGLSEAKPATPEIQEIVDKVKPQLEEKTGETYGKLEAVQYKTQVVGIREDWNWSGTNYYIKVRAGDNKYMHLKVFKSLFEPKKLEPAEDLVLTGYQVDKNKDDELTGF |
| 16.9 | Clone 54 (designed binder, type III Affimer monomer; His-tagged) MIPGGLSEAKPATPEIQEIVDKVKPQLEEKTGETYGKLEAVQYKTQVVINQQQIKHSGTNYYIKVRAGDNKYMHLKVFKSLWQHIPPDFWEDLVLTGYQVDKNKDDELTGF |
